Measurements as given in US20180037644A1 (Pfizer, published 2018).
Residue numbers refer to the chain shown, from its start.

T1: human IL-33 (mm2) (human, UniProt O95760 112-270)
T1 chain: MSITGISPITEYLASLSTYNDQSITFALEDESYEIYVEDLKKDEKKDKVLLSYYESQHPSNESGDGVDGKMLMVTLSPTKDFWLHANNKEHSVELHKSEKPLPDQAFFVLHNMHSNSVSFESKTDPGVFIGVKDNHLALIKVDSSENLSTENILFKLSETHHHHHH

T2: cynomolgus monkey IL-33 (cys mut) (cynomolgus monkey)
T2 chain: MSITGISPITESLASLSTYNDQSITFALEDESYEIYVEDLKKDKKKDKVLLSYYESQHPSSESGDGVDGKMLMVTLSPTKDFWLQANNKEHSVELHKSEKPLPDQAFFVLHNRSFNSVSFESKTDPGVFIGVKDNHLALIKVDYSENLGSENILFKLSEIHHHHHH

B1: 9B3-563 (antibody, human IgG1, kappa, V domains shown)
VH: EVQLVETGGGLVQPGRSLKLSCVASGFTFSNYWMYWIRQAPGMGLEWVSSINNDGGNTYYLDSVKGRFTISRNNAENTVYLQMNSLRSEDTATYYCAKGHYYYSSYSFAYWGQGTLVTVSS
VL: DIQMTQSPSVLSASVGDRVTLSCKASHNINKHLDWYQQKVGEAPKLLIYFTNNLQTGIPSRFSGSGSGTDYTLTISSLQPEDVATYFCFQYNSGWTFGQGTKVEIKR
B2: 9B3-3 (antibody, human IgG1, kappa, V domains shown)
VH: B1 VH with Y102S, F108I, A109D
VL: B1 VL
B3: 9B3-13 (antibody, human IgG1, kappa, V domains shown)
VH: B1 VH with K98R, S104N, Y110H
VL: B1 VL
B4: 9B3-15 (antibody, human IgG1, kappa, V domains shown)
VH: B1 VH with Y102S, Y110N
VL: B1 VL
B5: 9B3-79 (antibody, human IgG1, kappa, V domains shown)
VH: B1 VH with K98R, S104T
VL: B1 VL
B6: 9B3-7 (antibody, human IgG1, kappa, V domains shown)
VH: B1 VH with H100R
VL: B1 VL
B7: 9B3-2A (antibody, human IgG1, kappa, V domains shown)
VH: B1 VH with Y102S, A109G
VL: B1 VL
B8: 9B3-1 (antibody, human IgG1, kappa, V domains shown)
VH: B1 VH with F108L, A109G
VL: B1 VL
B9: 9B3-31v2 (antibody, human IgG1, kappa, V domains shown)
VH: B1 VH with Y110F
VL: B1 VL
B10: 9B3-2B (antibody, human IgG1, kappa, V domains shown)
VH: B1 VH with A97V, Y102S, F108I, A109D
VL: B1 VL
B11: 9B3-36 (antibody, human IgG1, kappa, V domains shown)
VH: B1 VH with S104T
VL: B1 VL
B12: 9B3-5 (antibody, human IgG1, kappa, V domains shown)
VH: B1 VH with Y102S, S104T, A109G
VL: B1 VL
B13: IL33-153 (antibody, human IgG1, kappa, V domains shown)
VH: EVQLVESGGGLVQPGGSLRLSCAASGFTFSSYWMYWVRQAPGKGLEWVASITPNAGEDYYPDSVKGRFTISRDNAKNSLYLQMNSLRAEDTAVYYCARGHYYYTSYSLGYWGQGTLVTVSS
VL: DIQMTQSPSSLSASVGDRVTITCKASQNINKHLDWYQQKPGKAPKLLIYFTNNLQTGVPSRFSGSGSGTDFTLTISSLQPEDFATYYCFQYNQGWTFGGGTKVEIKR
B14: IL33-155 (antibody, human IgG1, kappa, V domains shown)
VH: B13 VH with S50A, A55G
VL: B13 VL
B15: IL33-172 (antibody, human IgG1, kappa, V domains shown)
VH: B13 VH with S50A, D62E
VL: B13 VL with Q93N
B16: IL33-157 (antibody, human IgG1, kappa, V domains shown)
VH: B13 VH with S50A
VL: B13 VL
B17: IL33-170 (antibody, human IgG1, kappa, V domains shown)
VH: B13 VH with S50A, A55G, D62E
VL: B13 VL with Q93N
B18: IL33-168 (antibody, human IgG1, kappa, V domains shown)
VH: B13 VH with D62E
VL: B13 VL with Q93N
B19: IL33-186 (antibody, human IgG1, kappa, V domains shown)
VH: B13 VH with S50A, A55G, D58T, D62E
VL: B13 VL
B20: IL33-156 (antibody, human IgG1, kappa, V domains shown)
VH: B13 VH with S50A, A55G, D62E
VL: B13 VL
B21: IL33-154 (antibody, human IgG1, kappa, V domains shown)
VH: B13 VH with D62E
VL: B13 VL
B22: IL33-188 (antibody, human IgG1, kappa, V domains shown)
VH: B13 VH with S50A, D58T, D62E
VL: B13 VL
B23: IL33-169 (antibody, human IgG1, kappa, V domains shown)
VH: B13 VH with S50A, A55G
VL: B13 VL with Q93N
B24: IL33-187 (antibody, human IgG1, kappa, V domains shown)
VH: B13 VH with S50A, D58T
VL: B13 VL
B25: IL33-175 (antibody, human IgG1, kappa, V domains shown)
VH: B13 VH with S50A, D58T, D62E
VL: B13 VL with Q93N
B26: IL33-171 (antibody, human IgG1, kappa, V domains shown)
VH: B13 VH with S50A
VL: B13 VL with Q93N
B27: IL33-158 (antibody, human IgG1, kappa)
heavy: EVQLVESGGGLVQPGGSLRLSCAASGFTFSSYWMYWVRQAPGKGLEWVAAITPNAGEDYYPESVKGRFTISRDNAKNSLYLQMNSLRAEDTAVYYCARGHYYYTSYSLGYWGQGTLVTVSSASTKGPSVFPLAPSSKSTSGGTAALGCLVKDYFPEPVTVSWNSGALTSGVHTFPAVLQSSGLYSLSSVVTVPSSSLGTQTYICNVNHKPSNTKVDKKVEPKSCDKTHTCPPCPAPEAAGAPSVFLFPPKPKDTLMISRTPEVTCVVVDVSHEDPEVKFNWYVDGVEVHNAKTKPREEQYNSTYRVVSVLTVLHQDWLNGKEYKCKVSNKALPAPIEKTISKAKGQPREPQVYTLPPSREEMTKNQVSLTCLVKGFYPSDIAVEWESNGQPENNYKTTPPVLDSDGSFFLYSKLTVDKSRWQQGNVFSCSVMHEALHNHYTQKSLSLSPGK
light: DIQMTQSPSSLSASVGDRVTITCKASQNINKHLDWYQQKPGKAPKLLIYFTNNLQTGVPSRFSGSGSGTDFTLTISSLQPEDFATYYCFQYNQGWTFGGGTKVEIKRTVAAPSVFIFPPSDEQLKSGTASVVCLLNNFYPREAKVQWKVDNALQSGNSQESVTEQDSKDSTYSLSSTLTLSKADYEKHKVYACEVTHQGLSSPVTKSFNRGEC
B28: IL33-167 (antibody, human IgG1, kappa)
heavy: B27 heavy with A50S, E62D
light: B27 light with Q93N

Target: T1, human IL-33 (mm2)
Assay: cell-based or functional assay
B1 was tested, and the “estimated IC50, HEK293 ST2 NFkB” value was 0.177 nM.
In the case of B2, the “estimated IC50, HEK293 ST2 NFkB” value is reported as 0.048 nM.
B3 was tested, and the “estimated IC50, HEK293 ST2 NFkB” value was 0.175 nM.
For B4, the “estimated IC50, HEK293 ST2 NFkB” value was 0.101 nM.
With B5 the “estimated IC50, HEK293 ST2 NFkB” value was 0.063 nM.
B6 was tested, and the “estimated IC50, HEK293 ST2 NFkB” value was 0.069 nM.
B7 was tested, and the “estimated IC50, HEK293 ST2 NFkB” value was 0.056 nM.
With B8 the “estimated IC50, HEK293 ST2 NFkB” value was 0.039 nM.
With B9 the “estimated IC50, HEK293 ST2 NFkB” value was 0.202 nM.
In the case of B10, the “estimated IC50, HEK293 ST2 NFkB” value is reported as 0.048 nM.
In the case of B11, the “estimated IC50, HEK293 ST2 NFkB” value is reported as 0.251 nM.
B12 was tested, and the “estimated IC50, HEK293 ST2 NFkB” value was 0.106 nM.

Target: T2, cynomolgus monkey IL-33 (cys mut)
Assay: cell-based or functional assay
In the case of B13, the “IC50, HEK293 ST2 NFkB cyno IL-33” value is reported as 0.122 nM.
With B14 the “IC50, HEK293 ST2 NFkB cyno IL-33” value was 0.239 nM.
For B15, the “IC50, HEK293 ST2 NFkB cyno IL-33” value was 0.222 nM.
In the case of B16, the “IC50, HEK293 ST2 NFkB cyno IL-33” value is reported as 0.161 nM.
In the case of B17, the “IC50, HEK293 ST2 NFkB cyno IL-33” value is reported as 0.218 nM.
With B18 the “IC50, HEK293 ST2 NFkB cyno IL-33” value was 0.264 nM.
In the case of B19, the “IC50, HEK293 ST2 NFkB cyno IL-33” value is reported as 0.144 nM.
With B20 the “IC50, HEK293 ST2 NFkB cyno IL-33” value was 0.087 nM.
For B21, the “IC50, HEK293 ST2 NFkB cyno IL-33” value was 0.133 nM.
B22 was tested, and the “IC50, HEK293 ST2 NFkB cyno IL-33” value was 0.351 nM.
With B23 the “IC50, HEK293 ST2 NFkB cyno IL-33” value was 0.176 nM.
B24 was tested, and the “IC50, HEK293 ST2 NFkB cyno IL-33” value was 0.282 nM.
In the case of B25, the “IC50, HEK293 ST2 NFkB cyno IL-33” value is reported as 0.086 nM.
In the case of B26, the “IC50, HEK293 ST2 NFkB cyno IL-33” value is reported as 0.216 nM.
B27 was tested, and the “IC50, HEK293 ST2 NFkB cyno IL-33” value was 0.125 nM.
In the case of B28, the “IC50, HEK293 ST2 NFkB cyno IL-33” value is reported as 0.062 nM.

Target: T1, human IL-33 (mm2)
Assay: cell-based or functional assay
Remark: another data set of the same source
In the case of B13, the “IC50, HEK293 ST2 NFkB” value is reported as 0.087 nM and the “IC50, whole blood mm2” value is reported as 0.014 nM.
In the case of B14, the “IC50, HEK293 ST2 NFkB” value is reported as 0.171 nM and the “IC50, whole blood mm2” value is reported as 0.025 nM.
With B15 the “IC50, HEK293 ST2 NFkB” value was 0.201 nM and the “IC50, whole blood mm2” value was 0.012 nM.
In the case of B16, the “IC50, HEK293 ST2 NFkB” value is reported as 0.118 nM and the “IC50, whole blood mm2” value is reported as 0.016 nM.
In the case of B17, the “IC50, HEK293 ST2 NFkB” value is reported as 0.176 nM and the “IC50, whole blood mm2” value is reported as 0.005 nM.
B18 was tested, and the “IC50, HEK293 ST2 NFkB” value was 0.109 nM and the “IC50, whole blood mm2” value was 0.014 nM.
In the case of B19, the “IC50, HEK293 ST2 NFkB” value is reported as 0.109 nM and the “IC50, whole blood mm2” value is reported as 0.012 nM.
B20 was tested, and the “IC50, HEK293 ST2 NFkB” value was 0.116 nM, the “IC50, PBMC mm2” value was 0.004 nM and the “IC50, whole blood mm2” value was 0.004 nM.
In the case of B21, the “IC50, HEK293 ST2 NFkB” value is reported as 0.188 nM, the “IC50, PBMC mm2” value is reported as 0.007 nM and the “IC50, whole blood mm2” value is reported as 0.01 nM.
For B22, the “IC50, HEK293 ST2 NFkB” value was 0.147 nM and the “IC50, whole blood mm2” value was 0.017 nM.
In the case of B23, the “IC50, HEK293 ST2 NFkB” value is reported as 0.071 nM and the “IC50, whole blood mm2” value is reported as 0.009 nM.
B24 was tested, and the “IC50, HEK293 ST2 NFkB” value was 0.15 nM and the “IC50, whole blood mm2” value was 0.006 nM.
In the case of B25, the “IC50, HEK293 ST2 NFkB” value is reported as 0.059 nM, the “IC50, PBMC mm2” value is reported as 0.004 nM and the “IC50, whole blood mm2” value is reported as 0.006 nM.
For B26, the “IC50, HEK293 ST2 NFkB” value was 0.145 nM and the “IC50, whole blood mm2” value was 0.012 nM.
In the case of B27, the “IC50, HEK293 ST2 NFkB” value is reported as 0.131 nM, the “IC50, PBMC mm2” value is reported as 0.004 nM and the “IC50, whole blood mm2” value is reported as 0.007 nM.
For B28, the “IC50, HEK293 ST2 NFkB” value was 0.049 nM, the “IC50, PBMC mm2” value was 0.001 nM and the “IC50, whole blood mm2” value was 0.008 nM.

Target: T1, human IL-33 (mm2)
Assay: BIAcore, IgG captured by anti-human Fc, 125 nM IL-33 (mm2)
Method: Binding to human and cynomolgus monkey IL-33 was measured by surface plasmon resonance using a BIAcore T200 instrument. An anti-human Fc antibody was immobilized on a CM5 chip, and anti-IL-33 antibodies were captured.
For B1, the koff was 0.00109 s⁻¹.
Work on B2 yielded a koff of 0.000424 s⁻¹.
B3 showed a koff of 0.000326 s⁻¹.
For B4, the koff was 0.000479 s⁻¹.
In the case of B5, the koff is reported as 0.000543 s⁻¹.
Binder B6 has a koff of 0.000589 s⁻¹.
In the case of B7, the koff is reported as 0.000437 s⁻¹.
B8 gave a koff of 0.000569 s⁻¹.
For B9, the koff was 0.000706 s⁻¹.
B10 gave a koff of 0.000506 s⁻¹.
Work on B11 yielded a koff of 0.000289 s⁻¹.
In the case of B12, the koff is reported as 0.000325 s⁻¹.
